Biological target: the molecule itself
Test: SEC

B1: Mycobacterium tuberculosis RNase J, full-length wild type (enzyme)
chain: MDVDLPPPGPLTSGGLRVTALGGINEIGRNMTVFEHLGRLLIIDCGVLFPGHDEPGVDLILPDMRHVEDRLDDIEALVLTHGHEDHIGAIPFLLKLRPDIPVVGSKFTLALVAEKCREYRITPVFVEVREGQSTRHGVFECEYFAVNHSTPDALAIAVYTGAGTILHTGDIKFDQLPPDGRPTDLPGMSRLGDTGVDLLLCDSTNAEIPGVGPSESEVGPTLHRLIRGADGRVIVACFASNVDRVQQIIDAAVALGRRVSFVGRSMVRNMRVARQLGFLRVADSDLIDIAAAETMAPDQVVLITTGTQGEPMSALSRMSRGEHRSITLTAGDLIVLSSSLIPGNEEAVFGVIDALSKIGARVVTNAQARVHVSGHAYAGELLFLYNGVRPRNVMPVHGTWRMLRANAKLAASTGVPQESILLAENGVSVDLVAGKASISGAVPVGKMFVDGLIAGDVGDITLGERLILSSGFVAVTVVVRRGTGQPLAAPHLHSRGFSEDPKALEPAVRKVEAELESLVAANVTDPIRIAQGVRRTVGKWVGETYRRQPMIVPTVIEV
notes: also called Mtb-RNase J; WT; not shown: 6xHis-sumo, N-terminal, cleaved
B1 was tested, and the “stoichiometry N” value was 2.

Source: PMC10119312, “Structural insights into RNase J that plays an essential role in Mycobacterium tuberculosis RNA metabolism” (Nature Communications, 2023)
